Data reported in patent US12312398B2, “Compositions and methods for targeting activin signaling to treat cancer” (The Johns Hopkins University, priority 2016, dated 2025).

B1: Activin: Activin (or Activin A), a dimeric member of the TGF-β Superfamily, added exogenously to T cells (protein, UniProt P08476 311-426, looked up)
Inhibin beta A chain: GLECDGKVNICCKKQFFVSFKDIGWNDWIIAPSGYHANYCEGECPSHIAGTSGSSLSFHSTVINHYRMRGHSPFANLKSCCVPTKLRPMSMLYYDDGQNIIKKDIQNMIVEECGCS
modifications: Inhibin beta A chain homodimer

Experiments:
naïve CD4+ T cells = assay: In vitro Treg differentiation, intracellular Foxp3 by flow cytometry; type: cell-based, mice
Protocol: Naïve CD4+ T cells from Yap1f/f,Foxp3-yfpCre+ (KO) and Yap1 wt/wt,Foxp3ypfCre+ (WT) mice were stimulated with anti-CD3/CD28 antibodies (1 and 4 ug/ml, respectively) for 3 days in the presence of IL-2 (100 U/ml) and the indicated doses of TGFβ and exogenous Activin A. A low dose of TGF-beta and/or activin was also administered to the indicated samples (activin was dosed at 50 ng/ml on day 0 and day 2 of culture). Treg induction (via detection of intracellular Foxp3 up-regulation) was determined by flow cytometry.
To explore the involvement of Activin/ACVR1C signaling in the driving of Treg differentiation by YAP, the effects of supplemental Activin on in vitro Treg commitment was also investigated. Activation of wild type naïve CD4+ T cells without TGFI3 yielded little-to-no Foxp3 induction.
Naïve CD4+ T cells (CD4+ CD25− CD62LHi) were sorted on a FACS Aria high speed sorter. The sorted cells were activated with plate-bound aCD3 (10 ug/ml) and soluble aCD28 (2ug/ml) in a 24-well plate with the following polarizing conditions: Th1 (IL-12 (10 ng/ml), aIL-4 (10 ug/ml)), Th2 (IL-4 (10 ng/ml), aIFN-g(10 ug/ml), aIL-12 (10 ug/ml)), Th17 (IL-6 (10 ng/ml), TGF-b1 (1.25 ng/ml), IL-23 (10 ng/ml), IL-1b(10 ng/ml), aIFN-g (10 ug/ml), aIL-4 (10 ug/ml), Treg (TGFb1 (5 ng/ml), IL-2 (100IU/ml).
For extracellular staining, harvested cells were washed and incubated in PBS containing 1% FBS containing the below fluorochrome-conjugated antibodies in a U-bottom 96-well plate. For intracellular cytokine staining, harvested cells were re-stimulated in PMA and Ionomycin in the presence of Golg-Plug (BD Biosciences). After 5 hour incubation, the cells were fixed/permeablized (eBioscience) and incubated with antibodies. IFN-g PE, IFN-g APC, IL-13 PE, IL-17 APC (BD Bioscience), IL-2 APC (BD Pharmingen), Foxp3 PE (eBioscience). For cellular proliferation, Cell Trace CFSE cell proliferation kit (Invitrogen) was used per manufacture's manual.

SMAD = SMAD phosphorylation by western blot in CD4+ T cells; type: cell-based, mice; conditions: CD4+CD25− T cells, anti-CD3/anti-CD28 24 hrs, then 12 hours treatment; Activin 5 or 10 ng/ml; TGF-β 0.5 or 2 ng/ml; versus untreated
Protocol: Cells were harvested and subjected to SDS-PAGE and Western blot with the indicated antibodies.
Since Activin has been reported to promote SMAD signaling in non-T cells (Schmierer, B., et al., J Biol Chem, 2003. 278:21197-203), whether Activin signaling in T cells could have a similar effect was examined SMAD activity was assessed by western blot analysis of SMAD phosphorylation.

| Molecule | Foxp3+ T cell induction (Treg induction) (naïve CD4+ T cells; wild type naïve CD4+ T cells, anti-CD3/CD28, IL-2 (100 U/ml), 3 days, activin 50 ng/ml on day 0 and day 2, low (suboptimal) dose TGF-β) | SMAD phosphorylation (phospho-SMAD) (SMAD) | Foxp3+ T cell induction (Treg induction) (naïve CD4+ T cells; Foxp3-driven YAP knockout (Foxp3Cre+/Yap1f/f) naïve CD4+ T cells, anti-CD3/CD28, IL-2, 3 days) | Foxp3+ T cell induction (Treg induction) (naïve CD4+ T cells; wild type naïve CD4+ T cells, anti-CD3/CD28, IL-2 (100 U/ml), 3 days, activin 50 ng/ml on day 0 and day 2, low (suboptimal) dose TGF-β, listed as Activin A) |
| --- | --- | --- | --- | --- |
| TGF-β: anti-inflammatory cytokine TGF-β, inducer of Foxp3 expression | modest up-regulation of Foxp3 | induced SMAD phosphorylation | – | – |
| B1 | – | elevation of phospho-SMAD | not seen | generated a population of Foxp3+ cells |
